Measurements taken from patent US10184116B2, “Chimeric genes for the catalytic protein of Oplophorus luciferase and use thereof” (JNC CORPORATION, priority 2014, dated 2019).

What was measured:
[1] = Luminescence activity of ZZ-fused WNanoKAZ mutants in crude enzyme solution (Example 10); format: biochemical; conditions: coelenterazine substrate; for Relative luminescence activity (Imax): ZZ-fused, pCold-ZZ-P- vector in E. coli, KAZ = 1.0; for fold higher activity than native KAZ / fold higher activity than the relative activity 7.4 of dnKAZ: Imax
Experimental: In order to express ZZ-fused KAZ mutants in E. coli, the recombinant plasmid produced in EXAMPLE 8 and pCold-ZZ-P-WNanoKAZ produced in EXAMPLE 1 were used. The crude enzyme solution was prepared in a manner similar to EXAMPLE 2, using the E. coli BL21 strain (Novagen, Madison, Wis.) as a host cell. Then, 5 μL of the crude enzyme solution obtained was subjected to SDS-PAGE analysis to confirm the protein expression in all mutants. In FIG. 1, M and 1 to 8 represent as follows. M: molecular weight size markers; 1: ZZ-P-KAZ; 2: ZZ-P-WNanoKAZ; 3: ZZ-P-WNanoKAZ-V90I; 4: ZZ-P-WNanoKAZ-E115P; 5: ZZ-P-WNanoKAZ-K124Q; 6: ZZ-P-WNanoKAZ-I138Y; 7: ZZ-P-WNanoKAZ-R166N; 8: ZZ-P-dnKAZ. It was confirmed from FIG. 1 that all mutants were expressed.
(§1) DTT was added to the crude enzyme solution obtained in EXAMPLE 9 at a final concentration of 1 mM, and then allowed to stand in an ice-water bath over 8 hours or more. After 1 μL of the crude enzyme solution was added to 100 μL of 30 mM Tris-HCl (pH 7.6)-10 mM EDTA (Wako Pure Chemical Industries, Ltd.) containing 1 μg of coelenterazine (manufactured by JNC Corp.), a luminescence reaction was started. Luminescence activity was measured for 60 seconds using a luminometer (manufactured by Atto Inc.: AB2200). The maximum intensity of luminescence (Imax) was given as a relative luminescence activity (rlu).

[2] = Substrate specificity of WNanoKAZ mutants, crude enzyme solution (Example 11); format: biochemical; conditions: for Relative luminescence activity, 6h-CTZ, Imax / Relative luminescence activity, 6h-CTZ, Int.: substrate 6h-CTZ; for Relative luminescence activity, 6h-f-CTZ, Imax / Relative luminescence activity, 6h-f-CTZ, Int.: substrate 6h-f-CTZ; for Relative luminescence activity, CTZ, Imax / Relative luminescence activity, CTZ, Int.: substrate CTZ
Experimental: as §1
Each of the coelenterazine analogues used for substrate specificity studies was synthesized by the methods described in publications. Specifically, bis-coelenterazine was synthesized by the method described in Nakamura et al. (1997) Tetrahedron Lett. 38: 6405-6406, furimazine by the method described in Hall et al. (2012) ACS Chem. Biol. […], and, 6h-coelenterazine, f-coelenterazine and 6h-f-coelenterazine by the method described in Inouye et al (2013) Biochem. Biophys. Res. Commun. 437: 23-28. Luminescence activity was measured by the same method as in EXAMPLE 10, using the crude enzyme solution obtained in EXAMPLE 10, in which coelenterazine or its analogue was used as the luminescence substrate.

CHO-K1 cells = experiment: Luminescence activity of WNanoKAZ mutants expressed by secretory expression vectors in animal culture cells (Example 13); format: cell-based, Chinese hamster; conditions: pcDNA3-GLsp- secretory vector, coelenterazine substrate
Experimental: Chinese hamster ovary cell line CHO-K1 was cultured in Ham's F-12 medium (manufactured by Wako Pure Chemical Industries, Ltd.) supplemented with 10% (v/v) fetal bovine serum (manufactured by Biowest Inc.). The CHO-K1 cells were seeded in a 6-well plate in 1×10^5 cells/well/2 mL medium (n=2) and cultured in an incubator at 37° C. in 5% (v/v) CO2. After 24 hours, the purified recombinant plasmid was transfected to CHO-K1 cells using a FuGene HD transfection kit (manufactured by Promega Corp.) and the cells were used for subsequent experiment. Specifically, 1 μg of the recombinant plasmid, 0.1 μg of the internal standard vector pGL4.13 [Luc2/sv40] and 3 μL of FuGene HD were added to 100 μL of the medium and allowed to stand at room temperature for 15 minutes. Subsequently, 100 μL of the DNA-FuGene complex solution was added to the cells in the 6-well plate. After incubation for 46 hours, the culture medium was collected. On the other hand, the KAZ mutant expressed in the cells was washed 3 times with 3 mL of 1×PBS, then suspended in 1 mL of 1×PBS and disrupted by sonication on ice. The resultant cell extract of WNanoKAZ was used as the enzyme solution.
After adding 5 μL of the culture medium and cell extract obtained in EXAMPLE 5 to 100 μL of 30 mM Tris-HCl (pH 7.6)-10 mM EDTA (Wako Pure Chemical Industries, Ltd.) containing 1 μg of coelenterazine (manufactured by JNC Corp.), a luminescence reaction was started. Luminescence activity was measured for 60 seconds using a luminometer (manufactured by Atto Inc.: AB2200). The maximum intensity of luminescence (Imax) was given as a percentage (%).
The recombinant plasmid obtained in EXAMPLE 12 or 4 was purified in a manner similar to EXAMPLE 5 and dissolved in sterile water. The firefly luciferase vector (pGL4.13 [Luc2/sv40]: manufactured by Promega Corp.) was similarly prepared and used as an internal standard.
Culture medium containing two amino acid-substituted KAZ mutants and three amino acid-substituted KAZ mutants and cell extracts of the KAZ mutants as the enzyme solutions were prepared by the same procedure as in EXAMPLE 9.
The resultant culture medium and cell extracts were used to measure luminescence activity as in EXAMPLE 6.

Relative luminescence activity (Imax) [1]	fold higher activity than native KAZ [1] [fold]	Relative luminescence activity, Furimazine, Imax [2]	Relative luminescence activity, bis-CTZ, Imax [2]	Relative luminescence activity, f-CTZ, Imax [2]	Relative luminescence activity, h-CTZ, Imax [2]	Relative luminescence activity, Furimazine, Int. [2]	Relative luminescence activity, bis-CTZ, Int. [2]	Relative luminescence activity, f-CTZ, Int. [2]	Relative luminescence activity, h-CTZ, Int. [2]	fold higher activity than the other coelenterazine analogues when coelenterazine was used as the substrate [2] [fold]	Relative luminescence activity, 6h-CTZ, Imax [2]	Relative luminescence activity, 6h-CTZ, Int. [2]	Relative luminescence activity, 6h-f-CTZ, Imax [2]	Relative luminescence activity, 6h-f-CTZ, Int. [2]	Relative luminescence activity, CTZ, Imax [2]	Relative luminescence activity, CTZ, Int. [2]	Molecule	fold higher activity than the relative activity 7.4 of dnKAZ [1] [fold]	Relative luminescence activity (%, Imax) Cell extracts (CHO-K1 cells) [%]	Relative luminescence activity (%, Imax) Culture medium (CHO-K1 cells) [%]
34	34	17	23	31	41	15	21	22	22	4.6	5.1	5.6	23	23	34	35	WNanoKAZ-V90I: single amino acid-substituted WNanoKAZ mutant, valine 90 back to isoleucine; SEQ ID NO: 8 (protein) FTLADFVGDWQQTAGYNQDQVLEQGGLSSLFQALGVSVTPIQKVVLSGENGLKADIHVIIPYEGLSGFQMGLIEMIFKVVYPVDDHHFKIILHYGTLVIDGVTPNMIDYFGRPYEGIAVFDGKKITVTGTLWNGNKIIDERLINPDGSLLFRVTINGVTGWRLCERILA	4.6	15	0.03
31	31	13	18	22	27	11	19	14	17	4.2	5.9	6.1	14	11	31	26	WNanoKAZ-E115P: WNanoKAZ with substitution of proline for glutamic acid at position 115; SEQ ID NO: 10 (protein) FTLADFVGDWQQTAGYNQDQVLEQGGLSSLFQALGVSVTPIQKVVLSGENGLKADIHVIIPYEGLSGFQMGLIEMIFKVVYPVDDHHFKVILHYGTLVIDGVTPNMIDYFGRPYPGIAVFDGKKITVTGTLWNGNKIIDERLINPDGSLLFRVTINGVTGWRLCERILA	4.2	12	<0.01
